# In the nanobody polyreactivity screen of Harvey et al. (2022):
# Experiment: yeast display, Sf9 membrane polyspecificity reagent, FACS + sequencing; frameworks hold sequencing errors
# Method in brief: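 Synthetic nanobody libraries on Saccharomyces cerevisiae BJ5465 were galactose-induced for 36–48 hours, stained 1 hour at 4 °C with 10% biotinylated, detergent-solubilized Sf9 membrane reagent and enriched on streptavidin microbeads. FACS then separated cells into low and high (top ~1%) gates by anti-HA (expression) and streptavidin (reagent binding) fluorescence. Genes were colony-PCR amplified, MiSeq 2 × 250 sequenced and CDR-length filtered. A clone's polyreactivity label is that of its gate of origin.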
row,Sequence,polyreactivity (PSR sort gate)
1,QVQLVETGGGLVQAGGSLRLSCAASGRTFLDYTMGWYRQAPGKERELVAAIRTSAGSTYYADSVKGRFTISRDNAKNTVYLQMNSLKPEDTAVYYCAKRQRGYFYEYYLYYSWGQGTQVTVSS,low polyreactivity
2,QVQLVETGGGLVQAGGSLRLSCAASGRTFYQYAMGWYRQAPGKERELVAGITFRGGSTNYADSVKGRFTISRDNAKNTVYLQMNSLKPEDTAVYYCAATVYGTVYKGRSQYEYGYWGQGTQVTVSS,high polyreactivity
3,QVQLVETGGGLVQAGGSLRLSCAASGSIFHPYGIGSYRQGPGKERELVAAITSSGGDTYYADSVKGRFTISRDNSKNTVYLQINSLKPEDTAVYYCAATGLPGYYAYDYWGQGTQVTVSS,low polyreactivity
4,QVQLVETGGGLVQAGGSLRLSCAASGSIFRYNAKGWYRQAPGKEREFVAAITRSGGSTYADSVKGRFTISRDNAKNTVSLQLNSLKPEDTAVYYCAATRLSRYEYWGQGTQVTVSS,low polyreactivity
5,QVQLVETGGGLVQAGGSLRLSCAASGSIFTNYVMGWYRQAPGKERELVAAINWSGGSTYYADSVKGRFTISRDNAKNTVYLQMNSLKQEDTAVYFCASESFSDGSPYNYWGQGPQVTVSS,low polyreactivity
6,QVQLVETGGGLVQAGGSLRLSCAASGSIFVYNAMGWYRQAPGKERELVAGITFIGGSTYYADSVKGRFTISRDNAKNTVFLQMNSLKPEDTAVYYCNADVAPGIFYGYDSWGQGTQVTVSS,low polyreactivity
7,QVQLVETGGGLVQAGGSLRLSCAASGSTFESNAMGWYRQAPGKERELVAAISRGGNTYYADSEKGRFTISRDNAKNTVYLQMNSLKPEDTAVYYCNVDRGNPVPPSEYWGQGTQVTVSS,low polyreactivity
8,QVQLVETGGGLVQAGGSLRLSCAASGSTFPAYTMGWYRQAPGKERELVAAITTGGRTYYADSVKGRFTISRDNAKNTVYLQMNSLKPEDTAVYYCAAKRYCYRSLPYYGIHGWGQGTQVTVSS,high polyreactivity
9,QVQLVETGGGLVQAGGSLRLSCAASGSTFSDYVMGWYRQAPGKERELVAAITWSGGSTYYADSVKGRFTISRDNAKNTVYLQMNSLKPEDTAVYYCAADPTASGHFLGQVDYWGQGTQVTVSS,high polyreactivity
10,QVQLVETGGGLVQAGGSLRLSCAASGSTFWYYGMGWYRQAPGKERELVAAISRRGGSTYYADSVKGRFTFSRDNAKNTVYLQMNSLKPEDTAVYYCAADRLIGDGENYYWGQGTQVTVSS,high polyreactivity
11,QVQLVETGGGLVQAGGSLRLSCAASRSIFARNAMGWYRQAPGKERELVAAISWSGGRTYYADSVKGRFPISRVNAKNTVYLQMNSLKPEDTAVYYCATYTWWGQGTQVTVSS,high polyreactivity
12,QVQLVETGGGLVQAGGSLRLSCADYGYILWNAMGWYRQAPGTEMELVPAIRFRGGSTSYADSVKGRFTISRDNAQNTVYLQMKSLKPVYTAVYYCNARWWVIRPYERHDYWGQGTQVTVTS,low polyreactivity
13,QVQLVETGGGLVQAGGSLRLSCAPSGRTFGPYAMGWYRQAPGKERELVAAIRVRGASTYYADSVKVRFTISRDNEKNTVYLQMNSLKPEDTEVYYCAATLSYYVGVRYDYWGQGTQVTVSS,high polyreactivity
14,QVQLVETGGGLVQAGGSLRLSCAPSGRTLSYYAMGWYIQAPGKERELVAAIRHSAGSTYYADSVKVRFTISRDNAKNTVYLQMISLKPEDTAVYYCAKKYYGHRYPSIYDYWGQGTQVTVSS,high polyreactivity
15,QVQLVETGGGLVQAGGSLRLSSGASGFIFVRNAMGWYRQAPGKEREFVAAINSSGGRTYYADSVKGRFTISRDNANNTVNLQMNSLKPEDTAVYYCAARPQPKKFYYWGQGTQETVSS,high polyreactivity
16,QVQLVETGGGLVQAGGSLSLSCAASGRTSKINAMGWYRQAPGKERELVASISRTGGTTYYADSVKGRFTISRDNAKNTVYLQMNSVKPEDTAVYYCAVSDFGLRDSLTIYDEYDYWGQGTQVTVSS,high polyreactivity

row,Sequence,polyreactivity (PSR sort gate)
1,QVQLVETGGGLVQAGGSLSLSCAASGSILDLNAMGWYRQAPGKERELVAAISSGGGTYYADSVKGRFTISRDNAKNTVYLQMNSLKPEDTAVYYCNRVTRWTYNYWGQGTQVTVSS,high polyreactivity
2,QVQLVETGGGLVQAGGSLSLSCAGSGHTFTNNAMGWYRQAPGKERELVAAITFSGGRTYYADSVKGRFTISRDNAKNTVYLQKNSLKPEDTAVYYCDAVNPGGSIYDYWGQGTQVTVSS,low polyreactivity
3,QVQLVETGGRLVQAGGSLRLSSAASGSIFYPYAMGWYRQAPGKEREWVATITISGGRTYYADSVKGRFTISRDNAKNTVYLQMNSLKPEDTAFYYCATEYAYGAFLYDYWGQGTQVTVSW,low polyreactivity
4,QVQLVETGGVLDQAGGSLRLSCAASGRIFWANAMGWYRQAPGKERELVAAISYSGVSTYYADSVKGRFTSSRDNAKNTVYLQMNSLKPEDTAVYYCAADRYRKYYYWGQGTQVTVSS,high polyreactivity
5,QVQLVETGRGLVQAGGSLRLSCAASGSTFWPNAMGWYRQAPGKDRELVAAITSGGGTKYADSVKGRFTISRDNAKNTVYLQMNSLKPEDTAVYYCAKRKGDRGAWNHAYGWEDVDYWGQGTQVTVSS,low polyreactivity
6,QVQLVETGRGLVQEGGSLRLICAASGRTFYIYAMGWYRQAPGKERDLVAAISWGSGSPYYADSVKGRFTISRDNAKNTVYLQINSLKPEDTAVYYFAAEYAFPSEWTYDYWGQVTQVTVSS,low polyreactivity
7,QVQLVETPGGLVQAGGSLRLSCAASGRIFAYNAMGWYRQEPGNERELVAAIDSGGDTNYADSVKGRFTISRDNAKNTVYLKMNSLKPEVTAVYYCWSRAAPPGWFYGTNDNYWGQGTQVTVSS,low polyreactivity
8,QVQLVETVRGLVQAGGSLRITCAASGRIYAYYSMGWYRQPPGKERELVAAITRSGGSTYYADSVKGRFTNSRDIAKYTVYIQMISLKPEDNAVYYCAPSLNVPYATMNYWGQGTQVTVSA,high polyreactivity
9,QVQLVEYGGGLVQAGGSLRLSCAASGRIFNYYAMGWYRQAPGKEREFVAAITRSGGRTYYADSVKGRFTISRDNAKNTVYLQMNILKPEDTAVYYCAAPYGTYAYDYSGQGTQVTVSS,high polyreactivity
10,QVQLVEYGGGLVQAGGSLRLSCADSGRIFDVYAMGWYRQAPGKERELVARISDGGGSTYYADSVKGRFTISRDNAKNTVYLKMNSLKPEDTAVYYCAAGGDLRLDRRFAFVSRGDYWGQGTQVTVSS,low polyreactivity
11,QVQLVKSGGGLVQAGGSLRLSCAASGSTFYNAMGWYRQAPGKERELVAAISIGGSTYYADSVKGRFTISRDNAKNTVYLQMNSLKPEDTAVYYCAAVWYTSRQKYDYWGHGTQVTVSS,low polyreactivity
12,QVQLVKSGGGLVQAGGSLRLSCAASGSTFYNAMGWYRQAPGKERELVAAISIGGSTYYADSVKGRFTISRDNAKNTVYLQMNSLKPEDTAVYYCAAVWYTSRQKYDYWGQGTQVTVSS,low polyreactivity
13,QVQLVLLGGGLVQAGGTLRVSCAPSGSIIYWKDRGWYRQAPGKERELDASITASGSSTYYADSVKGRFTISRDNGKNTVYLQMNSLLPEDTAVYYCNTSVFTYYDSAYDYWGQGTQVTVSS,low polyreactivity
14,QVQLVQSGAGLVQAGGSLRLSCAPSGFIFRRYDMAWYRQAPGKERELVAAITSSGGTTYYADSVKGRFTNSRDNAKNTVYLQMNSLKPEDTAVYYCNAVRGVYARRSDYWGQGTQVTVSS,high polyreactivity
15,QVQLVQSGGGIVQAGGSLRLSCAAYGITFGRNNMGWDRQAPGKERELVAALDSGGNTYADSVKGRFTISRDNAKQTVYVQMNSLKPEDTAVYDCAVDGGEFSSYGYWGQGTQVTVSS,low polyreactivity
16,QVQLVQSGGGLFQAGGSLRLSCAASGRTFWSNAMGWYRQAPGKERELVADITFSGGRTYYADSVKGRFTISRDNAKTSVYLQMNRLKPEDTAVYYCSSSATPSGVGMDYWGQGTQVTVSS,low polyreactivity
